Results: the DeepSol protein solubility set

Test: soluble on expression in E. coli; label from the status in PepcDB or PDB records

Sequence	soluble on expression in E. coli
MEHFLQYVWQHRLYSSLSYGADAFFLEPEVIDPGMLNRDSGPDFFNAKVKVGDLLWAGNVEIHCRASDWVRHGHHLDPAYDNVVLHVVETDDLPIRHRISGEPVPVCVMHVDERLRANADFMLRTSLLPGCKDRLHELDSLEVHDWLDTLVVERLERKAAEVDRLYLSTSMDWNATAYILLARHFGFGLNNDALERLARSLPFAAIAKHRSNLLQVEALLLGQAGLLADLEDEYAEKLASEYAFLRHKFDLQPLDPSLFRLHRARPASFVHRRLGQLAAILHRCEFLFSSFVETVSAKELAQKLSVEASSYWASHYRFGKPTPVPSRSTLAAISSDALLINVAAPLRYAWLRGQSMEDYRERTIDFLRGIKPENNKPVRAFSQICRPADAAESQALIQLYREYCERRKCFFCRWGYRLLSCCKG	not soluble
MDRDELVRYLDAYLRIQDFPQDPSLNGLQVEGKRTVRKVGAAVDAGEAIFRKALEEEVDFLIVHHGLFWGKPFPIVGHHKRRLETLFQGGINLYAAHLPLDAHEEVGNNFVLARELGLVDLTPWDVGVKGRFPQPTPLLQVADRLGQLTGMQPLVHQGGLDHVETVILVSGSGTGLLPKVDADLFVTGEPKHSVFHETFERGLNVIYAGHYDTETFGVKALAAHLEARFGLPWVFLDHPTGL	soluble
MTVPLYKQIASLIEDSIVDGTLSIDQRVPSTNELAAFHRINPATARNGLTLLVEAGILYKKRGIGMFVSAQAPALIRERRDAAFAATYVAPLIDESIHLGFTRARIHALLDQVAESRGLYK	not soluble
MNNENERFEGFFSRVVEQVRTLVLVPICQENKSENASPVCSVSSRVQEVLGLAQAIRLEVVYYETVNINIPRPATLFGTGKVKALTHYISEYDIELVIVDHFLTPVQQRNLEKLWNCKVIDRTALILEIFGDRARTKEGVLQVELAHLSYQKSRLVRSWTHLERQRGGHGFLGGPGETQIEADRRLLQEKIIRIRRELEKVIKTRALHRAKRKKTSHPIVALVGYTNTGKSTLFNRLSGANVLAKDMLFATLDPTLRKVVLPHGKTILLSDTVGFISHLPTHLIAAFRATLEEVVEADLILHVRDMSDLDHRAHGQDVLEVLADLGIDIDDTEHIIEVWNKIDILDEHALNVLQTSARTRLNPAVMVSALMSDGLDQLLTAIEKRVFGEMQSIECLLRPHEMSLISWFYENSGEIMQEGHNDGSVTIRAMLTSEAKKRLDHIKQTMN	not soluble
MGEELNRLLDVLGNETRRRILFLLTKRPYFVSELSRELGVGQKAVLEHLRILEEAGLIESRVEKIPRGRPRKYYMIKKGLRLEILLTPTLFGSEMYEAKGVRKSPEYEQAKELIKSQEPINVKMRELAEFLHELNERIREIIEEKRELEEARILIETYIENTMRRLAEENRQIIEEIFRDIEKILPPGYARSLKEKFLNINI	soluble
MSLSKTYVGSRVRQLRNERGFSQAALAQMLEISPSYLNQIEHDVRPLTVAVLLRITEVFGVDATFFASQDDTRLVAELREVTLDRDLDIAIDPHEVAEMVSAHPGLACAVVNLHRRYRITTAQLAAATEERFSDGSGRGSITMPHEEVRDYFYQRQNYLHALDTAAEDLTAQMRMHHGDLARELTRRLTEVHGVRINKRIDLGDTVLHRYDPATNTLEISSHLSPGQQVFKMAAELAYLEFGDLIDAMVTDGKFTSAESRTLARLGLANYFAAATVLPYRQFHDVAENFRYDVERLSAFYSVSYETIAHRLSTLQRPSMRGVPFTFVRVDRAGNMSKRQSATGFHFSSSGGTCPLWNVYETFANPGKILVQIAQMPDGRNYLWVARTVELRAARYGQPGKTFAIGLGCELRHAHRLVYSEGLDLSGDPNTAATPIGAGCRVCERDNCPQRAFPALGRALDLDEHRSTVSPYLVKQEGHHHHHH	soluble
MTTLYLASGSPRRQELLTQLGFSFEQVVPGIEEQRRAQESAQQYVVRLAREKAQAGVALVPRDLPVLGADTIVVLNGEVLEKPRDAAHAAEMLRLLSGNTHQVMTAVALADSQQTLDCLVVTEVTFRTLSAQDITGYVASGEPLDKAGAYGIQGRGGCFVRKINGSYHAVVGLPLVETYELLSHFNALRDKRDKHDG	not soluble
